# In the supplement of paper PMC7877785:
# ± gives the uncertainty stated by the source.
# Test: self-splicing fitness, log relative to wild type (ln ratio); higher = more splicing; Tetrahymena group I intron in knt gene, E. coli kanamycin selection, DiMSum; sequences stand for … in CUCUCU…GGAGGGAAAAGUUAUCAGGCAUGCACCUGGUAGCUAGUCUUUAAACCAAUAGAUUGCAUCGGUUUAAAAGGCAAGACCGUCAAAUUGCGGGAAAGGGGUCAACAGCCGUUCAGUACCAAGUCUCAGGGGAAACUUUGAGAUGGCCUUGCAAAGGGUAUGGUAAUAAGCUGACGGACAUGGUCCUAACCACGCAGCCAAGUCCUAAGUCAACAGAUCUUCUGUUGAUAUGGAUGCAGUUCACAGACUAAAUGUCGGUCGGGGAAGAUGUAUUCUUCUCAUAAGAUAUAGUCGGACCUCUCCUUAAUGGGAGCUAGCGGAUGAAGUGAUGCAACACUGGAGCCGCUGGGAACUAAUUUGUAUGCGAAAGUAUAUUGAUUAGUUUUGGAGUACUCGUGGUCG
# Outline: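 A randomised library covering all eight P1ex-region intron nucleotides was built with the intron in the knt kanamycin-resistance gene on pET-22b(+) and held in E. coli BL21(DE3). Cells were grown overnight at 37°C or 30°C on LB agar, with or without 25 μg/mL kanamycin, plus 100 μg/mL carbenicillin, 50 μM IPTG and 0.2% rhamnose, and pooled colonies were amplicon-sequenced on an Illumina HiSeq 2500. DiMSum fitness is the error-weighted combination of wild-type-normalised replicate fold changes, kanamycin versus none.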
Sequence,self-splicing fitness (ln) (30 °C),self-splicing fitness (ln) (37 °C)
CUUAAGCAAUAUUACGCUAA,-3.21 ± 0.39,-1.58 ± 0.3
CGCUAGCAAUAUUACGCUCU,-1.58 ± 0.1,-0.837 ± 0.099
AUCCAGCAAUAUUACGUAGC,-2.3 ± 0.08,-1.78 ± 0.11
AGACAGCAAUAUUACGAGGG,-4.15 ± 0.16,-2.61 ± 0.21
UUAUAGCAAUAUUACGAUCG,-0.934 ± 0.12,-0.581 ± 0.14
GUUGAGCAAUAUUACGAGAA,,-0.619 ± 0.5
GGUGAGCAAUAUUACGUCCG,-1.13 ± 0.21,-0.66 ± 0.29
AAAUAGCAAUAUUACGACAC,-1 ± 0.11,0.319 ± 0.12
GGCAAGCAAUAUUACGAGGG,-2.89 ± 0.13,-2.34 ± 0.14
CAAUAGCAAUAUUACGAGGC,-3.6 ± 0.33,-1.44 ± 0.31
CUCUAGCAAUAUUACGAUUU,-3.27 ± 0.19,-3.01 ± 0.3
AUGAAGCAAUAUUACGAAUC,-1.68 ± 0.23,
AUCUAGCAAUAUUACGGGGC,-2.42 ± 0.47,
UGGGAGCAAUAUUACGGACG,-1.52 ± 0.14,-0.236 ± 0.15
UAAGAGCAAUAUUACGGCGC,-2.68 ± 0.32,-2.01 ± 0.41
GAGCAGCAAUAUUACGCAGC,-3.7 ± 0.21,-2.61 ± 0.29
GGGUAGCAAUAUUACGCUUG,-0.33 ± 0.1,-0.241 ± 0.15
CACAAGCAAUAUUACGCCCU,-3.12 ± 0.19,-0.633 ± 0.13
UGCUAGCAAUAUUACGUAGU,-3.35 ± 0.2,-2.71 ± 0.25
GUUUAGCAAUAUUACGGGGU,-3.3 ± 0.35,-2.29 ± 0.2
AUACAGCAAUAUUACGUCUC,-2.98 ± 0.15,-2.27 ± 0.14
AACCAGCAAUAUUACGGUAA,-0.741 ± 0.051,-0.682 ± 0.058
AAUGAGCAAUAUUACGCAGU,-2.51 ± 0.2,-3.29 ± 0.31
CCUUAGCAAUAUUACGUAGG,-2.83 ± 0.14,-2.83 ± 0.18

Sequence,self-splicing fitness (ln) (30 °C),self-splicing fitness (ln) (37 °C)
UCAGAGCAAUAUUACGUUUU,-3.84 ± 0.26,-3.13 ± 0.26
UUAUAGCAAUAUUACGGAAC,-3.09 ± 0.36,-1.71 ± 0.44
AUGCAGCAAUAUUACGUAUC,-4.58 ± 0.41,-2.76 ± 0.4
GGACAGCAAUAUUACGCAGG,-1.45 ± 0.1,-0.578 ± 0.11
AUUGAGCAAUAUUACGUUAU,-2.61 ± 0.2,-1.86 ± 0.24
GCUGAGCAAUAUUACGGACG,-0.688 ± 0.1,-0.674 ± 0.11
GCAAAGCAAUAUUACGGUCC,-1.75 ± 0.14,-0.8 ± 0.15
CGUGAGCAAUAUUACGUGCA,-1.36 ± 0.13,0.0971 ± 0.14
CCUUAGCAAUAUUACGACCU,-2.79 ± 0.2,-1.77 ± 0.29
UGACAGCAAUAUUACGGCUU,-0.693 ± 0.075,-0.053 ± 0.092
AAUUAGCAAUAUUACGCAAU,-2.4 ± 0.13,-1.74 ± 0.17
UAGAAGCAAUAUUACGUAGA,-2.4 ± 0.095,-1.79 ± 0.11
ACCGAGCAAUAUUACGUACU,-2.31 ± 0.13,-0.966 ± 0.14
AACCAGCAAUAUUACGCGUG,-1.09 ± 0.057,-0.149 ± 0.063
CCUGAGCAAUAUUACGAUGU,-1.94 ± 0.084,-1.71 ± 0.098
GUGCAGCAAUAUUACGGUGA,-0.753 ± 0.095,0.095 ± 0.12
UGACAGCAAUAUUACGAAUU,-2.9 ± 0.2,-1.53 ± 0.21
ACCUAGCAAUAUUACGCCCG,-1.73 ± 0.27,-1.13 ± 0.28
GGAAAGCAAUAUUACGAUUG,-3.56 ± 0.28,-1.82 ± 0.23
AGACAGCAAUAUUACGUAUG,-3.13 ± 0.15,-0.801 ± 0.12
CGAGAGCAAUAUUACGGAAU,-3.06 ± 0.19,-3.23 ± 0.42
AGGGAGCAAUAUUACGUCUU,-2.53 ± 0.15,-0.226 ± 0.15
UGACAGCAAUAUUACGAAGC,-3.56 ± 0.37,-3.61 ± 0.39
CAGUAGCAAUAUUACGCGGG,-3.1 ± 0.16,-1.91 ± 0.17
